Measurements published in the supplement of paper PMC10724198.
± gives the standard deviation of the averaged measurements.

system: Saccharomyces cerevisiae; experiment: protein stability index of tFT-peptide fusion (C-terminal peptide) (PSI (0-1 scale)); higher = more stable (slower turnover); settings: genetic background: wild type; temperature: 30 C
Method: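 Multiplexed protein stability (MPS) profiling in S. cerevisiae. Random 12-aa peptides (tFT-X12 library) are fused to the C-terminus of a sfGFP-mCherry tandem fluorescent timer, after mCherry and a GGGS linker. Cells are FACS-sorted into 8 mCherry/sfGFP bins and deep-sequenced. The protein stability index (PSI) is the read-weighted bin average, scaled from 0 (unstable) to 1 (stable). Only peptides with >10 reads are reported; cells were grown at 30 °C in SC-His with glucose.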
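Note: PSI is a weighted mean of sequencing reads over stability bins, variants kept only with over 10 reads, mCherry proximal and sfGFP distal, peptide attached via GGGS linker.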

Sequence | protein stability index
KTKNEKHPKTTK | 0.766 ± 0.045
KTLALSAQHPGS | 0.645 ± 0.012
KTNKDKKRTKTV | 0.714 ± 0.2
KTTTQRQEETAE | 0.605 ± 0.033
KVAFKTNQHLGR | 0.661 ± 0.03
KVAGRLAATRSR | 0.716 ± 0.013
KVCGRIWWCPRA | 0.638 ± 0.03
KVDYIKKKNSRE | 0.7142 ± 0.0036
KVEVKRMKKEVK | 0.668 ± 0.014
KVFTQGPGRMLE | 0.758 ± 0.021
KVGGRGQGVKLG | 0.629 ± 0.034
KVIGSAPRAEGR | 0.656 ± 0.065
KVLGSNNMRRSS | 0.702 ± 0.018
KVMTEARTPALS | 0.702 ± 0.027
KVRGMKIKGKLD | 0.675 ± 0.054
KVYTALWLLAGN | 0.698 ± 0.028
KWETAAGSSDGP | 0.6993 ± 0.0032
KWNITKEQENSR | 0.681 ± 0.018
KWQRIKNSPNRK | 0.749 ± 0.059
KYNKSRRGKIKT | 0.697 ± 0.062
LAALVGGNRGRG | 0.704 ± 0.081
LAAVAAGDVGGG | 0.674 ± 0.035
LALTFRLQAPLA | 0.695 ± 0.017
LANAGLVLPRIP | 0.679 ± 0.0071
LAPPIRPCPPSP | 0.681 ± 0.056

Sequence | protein stability index
LAPTNAPYPHPM | 0.658 ± 0.015
LASCVTRTMAWD | 0.664 ± 0.071
LASREFGVFCIW | 0.648 ± 0.057
LATGCVGVRGHE | 0.719 ± 0.023
LAVILLVLPGND | 0.563 ± 0.011
LAWFDLAPSTLP | 0.827 ± 0.14
LAWYPGYCYCCL | 0.598 ± 0.0089
LAYAPLNGDVPY | 0.68 ± 0.01
LCAETGVGPGLW | 0.724 ± 0.016
LCGFLPSFHLLY | 0.679 ± 0.0088
LCHESFDGTFVN | 0.72 ± 0.022
LCLCGLLGSGPT | 0.736 ± 0.042
LCLFGGLVAFWC | 0.585 ± 0.027
LCPALLFLLARS | 0.5141 ± 0.0033
LCPDFSLQWSFD | 0.759 ± 0.019
LCPPLPPSPPRS | 0.70073 ± 0.00018
LCQWLIEFTVLF | 0.515 ± 0.025
LCSPSPPCPRLP | 0.748 ± 0.025
LDEQKLKLPPVK | 0.736 ± 0.024
LDFLLSMVHGKK | 0.702 ± 0.022
LDGLNLVRVVGV | 0.674 ± 0.044
LDINWVGGAPEV | 0.727 ± 0.042
LDKLLFIFNCGC | 0.66 ± 0.044
LDRGPFADQAPH | 0.678 ± 0.012
LEGNRGYKRNGK | 0.637 ± 0.084

Sequence | protein stability index
LELTTIRHNHEL | 0.695 ± 0.029
LERSTCYPREPM | 0.69 ± 0.1
LESLPSPLHLPM | 0.629 ± 0.026
LETIFEDFGKYR | 0.794 ± 0.092
LFAGPPTGPNAR | 0.802 ± 0.12
LFANGSGSSTSR | 0.715 ± 0.031
LFCARNGILLSV | 0.516 ± 0.0084
LFCSSHRMQTKL | 0.746 ± 0.029
LFFLLCHVGSFR | 0.516 ± 0.0085
LFGFFLECCFCT | 0.599 ± 0.052
LFGGCRLVGSVV | 0.711 ± 0.023
LFGLCLAGFCVP | 0.625 ± 0.046
LFIVSFSPGFPF | 0.635 ± 0.11
LFLELSSCVGVF | 0.62 ± 0.024
LFLFPVCFTNDL | 0.661 ± 0.025
LFLFSSAGYPNS | 0.661 ± 0.1
LFLLALFPPPAS | 0.738 ± 0.013
LFLSFFLPSYNT | 0.66 ± 0.026
LFLTFYSPLSFT | 0.646 ± 0.022
LFPCFSFPFSFL | 0.587 ± 0.055
LFPHPGPHHPSV | 0.716 ± 0.016
LFPPAFSAFLPF | 0.725 ± 0.024
LFPPTPRPLPLP | 0.654 ± 0.023
LFRRVASILPRD | 0.668 ± 0.013
LFSCVFFLCLNF | 0.512 ± 0.0074

Sequence | protein stability index
LFTDIQAPSVKH | 0.788 ± 0.18
LFVLSLHLPCFG | 0.498 ± 0.02
LFVSPRPFRSVL | 0.7495 ± 0.0063
LFWFSRVVCMSF | 0.564 ± 0.048
LFYFDTWFFPPP | 0.762 ± 0.097
LFYVNIPTQFVR | 0.564 ± 0.014
LGCLVGVRFLGF | 0.642 ± 0.032
LGDGAVVAEESG | 0.642 ± 0.062
LGDLVFGLSVWL | 0.684 ± 0.035
LGFLLSLVCLLG | 0.532 ± 0.015
LGGEVDLGPARG | 0.662 ± 0.092
LGGTRRVGLALV | 0.685 ± 0.057
LGGWWVSRVGEP | 0.732 ± 0.037
LGKGRYNIKINK | 0.695 ± 0.016
LGLPSSLGPSDF | 0.682 ± 0.011
LGLRSGQGPVTL | 0.7746 ± 0.00092
LGLRSRIYMLVD | 0.664 ± 0.0083
LGLSTVKLEVPW | 0.7731 ± 0.0016
LGMGWGSGLERW | 0.826 ± 0.12
LGPRVGDPDGRF | 0.742 ± 0.019
LGPSPQRLRYPT | 0.65 ± 0.035
LGSILSSSSSRL | 0.699 ± 0.018
LGSSQVGLVRRV | 0.663 ± 0.011
LGSVLSLVRFGR | 0.677 ± 0.016
LGVSVVEPGRVR | 0.702 ± 0.04

Sequence | protein stability index
LGVVCVGWLGGL | 0.664 ± 0.03
LGWDGSRRRPGL | 0.727 ± 0.14
LHAGHSNSVLAF | 0.601 ± 0.0075
LHCKDWGHESRD | 0.6838 ± 0.0057
LHHLASPSPPTP | 0.797 ± 0.015
LHMVSCFLCSLW | 0.564 ± 0.018
LHPPTHPQLPSS | 0.7214 ± 0.0059
LHRRIPFPTQAL | 0.567 ± 0.017
LHSIPLNPYLIA | 0.712 ± 0.16
LHSRKSDFSVIA | 0.656 ± 0.046
LIDYGLDVSLSL | 0.703 ± 0.015
LIFPPLPPLPPR | 0.754 ± 0.01
LIISDVTGFSHL | 0.6576 ± 0.0029
LIKKSFYMKIIK | 0.59 ± 0.057
LIPAASLSPLAC | 0.562 ± 0.013
LIPIRGESTFRF | 0.779 ± 0.11
LIPLPPPPLPPP | 0.623 ± 0.09
LIPTIRRKHRAT | 0.625 ± 0.014
LIRVSPDVNITA | 0.622 ± 0.066
LIYKRQPAFRCG | 0.632 ± 0.023
LKAACAKRGVLS | 0.679 ± 0.085
LKFRETHIRNHP | 0.701 ± 0.05
LKPMSRKSLRSM | 0.715 ± 0.022
LKRPDVTKKKSI | 0.62 ± 0.077
LLAVLSPAAPLP | 0.696 ± 0.058

Sequence | protein stability index
LLCFRLFPALTP | 0.6228 ± 0.0057
LLCHAGRTPRPP | 0.646 ± 0.013
LLCPSPPSDIPP | 0.661 ± 0.016
LLDGASALIFGG | 0.617 ± 0.057
LLDSLCEKTFRS | 0.677 ± 0.032
LLESTAHGKGIR | 0.683 ± 0.022
LLFPFSLHLSPP | 0.765 ± 0.066
LLFSPTHEPRIW | 0.734 ± 0.075
LLFSPTRVFLRY | 0.49 ± 0.053
LLFSSPPARMCP | 0.786 ± 0.1
LLGHSTPAHVFL | 0.7129 ± 0.0031
LLGKVAYFFMFG | 0.631 ± 0.025
LLGVRLGVLSFA | 0.58 ± 0.01
LLHEAFSSPLSS | 0.7164 ± 0.0068
LLHHSSVSFFSL | 0.71 ± 0.016
LLHWGRWRRGRR | 0.722 ± 0.046
LLIYIPLFEWAR | 0.526 ± 0.028
LLKQDNSVLSEL | 0.63 ± 0.07
LLLARWASFIMS | 0.685 ± 0.01
LLLASSHAPYLH | 0.77 ± 0.021
LLLLDLWLPSVL | 0.76 ± 0.059
LLLLNSFFISPP | 0.742 ± 0.027
LLLPSTPSPLLY | 0.609 ± 0.014
LLPFCPPCLRSL | 0.648 ± 0.018
LLPFDTYPPTSP | 0.695 ± 0.036

Sequence | protein stability index
LLPLAPSPPPPH | 0.71 ± 0.042
LLPPPPFSAPPS | 0.671 ± 0.012
LLPPSHRASPRQ | 0.694 ± 0.027
LLPQSPRPLVHS | 0.774 ± 0.065
LLPSLLRPQPPA | 0.699 ± 0.034
LLPSPLSLTFPL | 0.616 ± 0.013
LLPVFFISYPSS | 0.6545 ± 0.0053
LLQLLGGFVFSA | 0.67 ± 0.018
LLRLVFHLETSS | 0.547 ± 0.081
LLRVLVTFDAFD | 0.576 ± 0.021
LLRWCFDLWWVL | 0.532 ± 0.051
LLSFLLFFVPGS | 0.576 ± 0.0013
LLSPPPHPPPLI | 0.6648 ± 0.0038
LLSPQPPSSPLP | 0.69 ± 0.015
LLSSPYPPDTFT | 0.6427 ± 0.0012
LLTGPYRCIPLV | 0.608 ± 0.039
LLTSRLSTPFLI | 0.53 ± 0.012
LLVGVGGAGGVG | 0.603 ± 0.012
LLVLPLVFSCSS | 0.53 ± 0.0078
LLVWPLDQTFRL | 0.698 ± 0.019
LLWVSAPHRYVR | 0.642 ± 0.036
LLYALLLSLFRY | 0.595 ± 0.02
LMSGFFCGLLYA | 0.6181 ± 0.0029
LMYGSVGVRGGE | 0.76 ± 0.064
LNCRCMLSRHCW | 0.666 ± 0.032

Sequence | protein stability index
LNSCLIVDEPDI | 0.8026 ± 0.0048
LNTVNGRSSTAK | 0.665 ± 0.019
LPACPHPPPLPD | 0.6594 ± 0.0047
LPAHLLPPSSPS | 0.741 ± 0.03
LPAHPPAAPGAP | 0.692 ± 0.032
LPAPPPPPPSPL | 0.71 ± 0.074
LPAPSPAVPSPP | 0.668 ± 0.033
LPAPSPSPHPPA | 0.689 ± 0.026
LPCGRGQLVGSQ | 0.677 ± 0.032
LPCTTPLLFTPV | 0.706 ± 0.21
LPDLSPIRRCPL | 0.694 ± 0.04
LPERASQARGRP | 0.694 ± 0.17
LPFRLARLSQEG | 0.849 ± 0.016
LPGGRRPSQCPA | 0.645 ± 0.01
LPILPQHQPTTD | 0.674 ± 0.014
LPKARPRTNPPP | 0.712 ± 0.15
LPKSRIGPILNG | 0.743 ± 0.12
LPLALSAPPAQP | 0.683 ± 0.042
LPLAMTTIGISL | 0.675 ± 0.011
LPLCSPPAPPSS | 0.666 ± 0.026
LPLIRQLPNPPP | 0.648 ± 0.031
